According to paper PMC3817407:
Where “and” joins values, the source holds several entries; their conditions need not be identical. Equal entries are not always repeated.

T1: ECF01_3473
T1 chain: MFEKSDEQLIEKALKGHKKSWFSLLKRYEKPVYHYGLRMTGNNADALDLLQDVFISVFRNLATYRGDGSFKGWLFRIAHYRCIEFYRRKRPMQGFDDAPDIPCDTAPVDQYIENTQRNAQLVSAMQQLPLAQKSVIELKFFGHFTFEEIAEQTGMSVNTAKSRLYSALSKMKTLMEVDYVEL

T2: ECF02_915
T2 chain: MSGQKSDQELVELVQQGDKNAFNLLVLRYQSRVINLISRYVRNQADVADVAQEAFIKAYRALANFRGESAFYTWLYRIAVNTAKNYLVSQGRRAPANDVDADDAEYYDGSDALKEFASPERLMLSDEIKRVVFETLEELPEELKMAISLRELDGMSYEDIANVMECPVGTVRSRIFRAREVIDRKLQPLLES

T3: ECF03_1244
T3 chain: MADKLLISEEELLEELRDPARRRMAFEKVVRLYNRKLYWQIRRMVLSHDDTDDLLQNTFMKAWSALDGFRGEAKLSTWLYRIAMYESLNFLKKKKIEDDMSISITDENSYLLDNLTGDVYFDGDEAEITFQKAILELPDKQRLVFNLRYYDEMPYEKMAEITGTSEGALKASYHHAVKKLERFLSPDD

T4: ECF11_987
T4 chain: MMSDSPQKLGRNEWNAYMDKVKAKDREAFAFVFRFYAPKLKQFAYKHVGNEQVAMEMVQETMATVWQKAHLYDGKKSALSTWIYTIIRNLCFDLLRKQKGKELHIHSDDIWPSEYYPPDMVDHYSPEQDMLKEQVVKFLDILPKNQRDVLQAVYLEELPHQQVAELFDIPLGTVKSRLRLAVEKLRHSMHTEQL

T5: ECF15_436
T5 chain: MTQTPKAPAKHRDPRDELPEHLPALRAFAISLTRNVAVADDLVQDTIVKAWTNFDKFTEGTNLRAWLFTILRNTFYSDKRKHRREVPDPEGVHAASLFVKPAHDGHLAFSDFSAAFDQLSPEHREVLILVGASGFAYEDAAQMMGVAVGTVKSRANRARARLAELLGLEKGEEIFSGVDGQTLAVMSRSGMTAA

T6: ECF16_3622
T6 chain: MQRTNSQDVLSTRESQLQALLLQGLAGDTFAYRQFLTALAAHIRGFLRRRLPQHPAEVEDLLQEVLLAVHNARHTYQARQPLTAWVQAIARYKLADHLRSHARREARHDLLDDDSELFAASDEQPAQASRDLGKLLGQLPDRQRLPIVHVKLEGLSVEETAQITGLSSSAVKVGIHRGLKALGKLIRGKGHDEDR

T7: ECF17_1691
T7 chain: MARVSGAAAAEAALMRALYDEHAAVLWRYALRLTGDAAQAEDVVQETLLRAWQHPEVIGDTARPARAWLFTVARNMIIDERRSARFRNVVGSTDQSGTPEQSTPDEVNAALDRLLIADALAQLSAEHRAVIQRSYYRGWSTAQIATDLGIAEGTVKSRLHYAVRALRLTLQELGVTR

T8: ECF25_1643
T8 chain: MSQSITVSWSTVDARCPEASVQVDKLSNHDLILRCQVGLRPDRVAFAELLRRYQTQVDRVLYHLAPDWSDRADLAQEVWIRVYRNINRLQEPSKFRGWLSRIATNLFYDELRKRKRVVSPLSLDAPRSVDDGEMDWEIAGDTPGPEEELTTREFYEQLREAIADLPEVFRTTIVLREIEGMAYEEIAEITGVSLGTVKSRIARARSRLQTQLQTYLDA

T9: ECF25_1645
T9 chain: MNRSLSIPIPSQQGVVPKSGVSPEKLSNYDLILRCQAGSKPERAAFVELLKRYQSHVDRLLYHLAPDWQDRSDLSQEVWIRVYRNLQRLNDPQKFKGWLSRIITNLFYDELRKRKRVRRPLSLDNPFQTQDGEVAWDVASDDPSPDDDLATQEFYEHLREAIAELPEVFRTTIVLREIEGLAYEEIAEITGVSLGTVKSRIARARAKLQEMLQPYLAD

T10: ECF28_1040
T10 chain: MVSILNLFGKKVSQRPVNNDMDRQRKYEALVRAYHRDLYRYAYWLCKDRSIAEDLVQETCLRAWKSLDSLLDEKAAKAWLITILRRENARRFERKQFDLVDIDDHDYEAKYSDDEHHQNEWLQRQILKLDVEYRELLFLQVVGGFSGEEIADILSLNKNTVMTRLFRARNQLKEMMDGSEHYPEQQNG

T11: ECF30_35
T11 chain: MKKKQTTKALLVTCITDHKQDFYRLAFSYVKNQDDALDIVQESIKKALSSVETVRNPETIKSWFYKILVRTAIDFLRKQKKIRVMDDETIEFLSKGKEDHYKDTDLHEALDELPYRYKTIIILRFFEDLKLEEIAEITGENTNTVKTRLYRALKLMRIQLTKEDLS

T12: ECF34_1384
T12 chain: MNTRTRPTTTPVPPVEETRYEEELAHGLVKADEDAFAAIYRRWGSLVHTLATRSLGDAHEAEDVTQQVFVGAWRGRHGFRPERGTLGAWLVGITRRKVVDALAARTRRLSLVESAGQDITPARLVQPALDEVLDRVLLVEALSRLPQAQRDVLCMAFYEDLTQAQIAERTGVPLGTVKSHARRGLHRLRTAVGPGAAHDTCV

T13: ECF35_3582
T13 chain: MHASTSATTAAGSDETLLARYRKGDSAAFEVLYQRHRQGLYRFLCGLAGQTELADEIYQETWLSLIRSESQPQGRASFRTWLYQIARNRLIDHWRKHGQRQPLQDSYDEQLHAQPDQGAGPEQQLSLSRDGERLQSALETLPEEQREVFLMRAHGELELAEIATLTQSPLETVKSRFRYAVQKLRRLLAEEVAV

T14: ECF37_2513
T14 chain: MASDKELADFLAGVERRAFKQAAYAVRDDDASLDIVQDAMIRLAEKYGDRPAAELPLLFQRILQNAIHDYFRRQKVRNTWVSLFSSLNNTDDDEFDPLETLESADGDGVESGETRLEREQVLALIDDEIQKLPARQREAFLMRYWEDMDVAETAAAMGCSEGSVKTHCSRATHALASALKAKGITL

B1: AS01_3473 (protein)
chain: MSNYDNAELLALWLEGKLTPKQRDEFEQRCIQDSQFAEQVDAAAMVKIGADDYSSSEVPQWNKAATFEPQQANNSGSWLSGVSLVTSALAIVLVLTGTQVTTSEGELRIRFGSGQSEQALVKLVDSKLDAFKQNQQDAFTLYAQTLQQQQSESASQLTNYLLSSSRKERREDFAELIKFVNQQRSDDQLFYARQLNQLQQDVYHDATGVALESIQQ
B2: AS03_1198 (protein)
chain: MDKDFDFDNIGKRTPYRTPDNFFEETQRKILERTVDEQRKKRRLKRIIPTVIAVAAVLAGILFTPSLRYMNTDTPSASNILAVDKNNVTTDPVDKWIKELSDEELEELVSFSENDIFLN
B3: AS03_1244 (protein)
chain: MKQFDPDVNIRPKEDSIRHYSVPDDYFASFTDKLMAQIPAVKEENTVVVPSVALWPKLRPLLYLAASFLLMIGMFKAFSLFGVGSDTGRTTSTSAGLVALDHGDTRWSEDTDYRDFLHDNCAETVSDEWVLTDFSE
B4: AS04_1609 (protein)
chain: MNRTTEQRNAEVMKTIGLLDQMPRVEVDHLFRVRLMQRIEAMEVKKTSWSALPGGAFNPRLAFMALLLMLNIASALMLFMHGTPQATGSSGAIAESLTEDYGGPALSYYDDQTTIDR
B5: AS11_987 (protein)
chain: MNKHPDNNLLEAYASGSIDAVSGLVVATHLETCSKCRAYVNQVEASQANTVSESPSEYSPEFDDMLNDIINAEPVNDNVVIQDTAFVNVAGKSFELPKTLVRFSDLVGSWRSYGGKVFSAQIDLGEDARVSLMYIGENVQIPQHTHRGLESTLVLHGGFSDEDGQYEEGDLMVRDASVKHSPFTQEGEDCLCLTVLTEPMIFTQGVARIFNLFGKGLYP
B6: AS14_1324 (protein)
chain: MSGSRPEPEGHLAEQHLGDRLSALVDGELGHDARERVLAHVATCPKCKAEVDAQRRLKNVFAEAAPPAPSESFLARLQGLPGGGDSDGGGSPFSGLPGGFGASAASGVFGPRRDERFEFDYVPAGSHTPVLPSATSGRGFRIHEVGRHESDRSASRGLRFAFAAAGAVSLAAIALGGVTLGTPDTTTEARGSGSGSNVTPLRTPGSAAATGSESQRRRTAGPLLGQGQRALGDLPVASTTASAPLLPGMPAPAGGDARQQAVRALTTPVTAGAAAMSPLIRPLEAVPPLSLSSWSAAPEVRPPGLLAAPDPAPSPYPAASPAASSSPLR
B7: AS15_436 (protein)
chain: MAQSTEPKASPQEATAKGGDNTKGKSRKELQQQIDENLRRVYEEALVQEVPDRFAMLLDQLRQKGTGK

What was measured:
ECF01_3473 = molecular target: T1, ECF01_3473
ECF02_915 = molecular target: T2, ECF02_915
ECF03_1244 = molecular target: T3, ECF03_1244
ECF11_987 = molecular target: T4, ECF11_987
ECF15_436 = molecular target: T5, ECF15_436
ECF16_3622 = molecular target: T6, ECF16_3622
ECF17_1691 = molecular target: T7, ECF17_1691
ECF25_1643 = molecular target: T8, ECF25_1643
ECF25_1645 = molecular target: T9, ECF25_1645
ECF28_1040 = molecular target: T10, ECF28_1040
ECF30_35 = molecular target: T11, ECF30_35
ECF34_1384 = molecular target: T12, ECF34_1384
ECF35_3582 = molecular target: T13, ECF35_3582
ECF37_2513 = molecular target: T14, ECF37_2513

Row | Binder | fold repression (ECF01_3473) | fold repression (ECF02_915) | fold repression (ECF03_1244) | fold repression (ECF11_987) | fold repression (ECF15_436) | fold repression (ECF16_3622) | fold repression (ECF17_1691) | fold repression (ECF25_1643) | fold repression (ECF25_1645) | fold repression (ECF27_1331) | fold repression (ECF28_1040) | fold repression (ECF30_35) | fold repression (ECF34_1384) | fold repression (ECF35_3582) | fold repression (ECF37_2513)
1 | B1 | 13 | 2.34 | 1.39 | 1.52 | 1.94 | 2.47 | 1.97 | 1.37 and 1.13 | 0.81 | 3.09 | 2.3 | 1.56 | 1.64 | 1.49 | 1.38
2 | B2 | 2.38 | 2.43 | 1.36 | 1.61 | 1.11 | 1.26 | 0.986 | 0.95 and 0.944 | 0.816 | 1.42 | 1.23 | 1.17 | 0.959 | 1.05 | 1.07
3 | B3 | 2.13 | 2 | 60.8 | 2.14 | 2.04 | 2.5 | 1.44 | 1.23 and 1.24 | 1.37 | 2.14 | 1.68 | 1.54 | 1.65 | 1.37 | 1.89
4 | B4 | 4.75 | 2.99 | 4.39 | 6.21 | 5.75 | 13.1 | 1.22 | 1.05 and 1.18 | 1.06 | 2.31 | 1.03 | 1.99 | 2.28 | 3.24 | 2.72
5 | B5 | 4.16 | 3.1 | 2.2 | 77.4 | 3.32 | 5.11 | 2.68 | 2.1 and 1.71 | 2.46 | 3.06 | 2.02 | 2.89 | 2.37 | 1.71 | 1.66
6 | B6 | 8.34 | 2.86 | 3.13 | 6.84 | 6.5 | 6.46 | 4.81 | 3.84 and 3.33 | 3.18 | 8.27 | 4.3 | 3.36 | 2.76 | 4.28 | 3.89
7 | B7 | 4.77 | 1.55 | 1.54 | 2.8 | 46.1 | 6.45 | 4.15 | 1.19 and 1.27 | 1.87 | 4.82 | 4.28 | 2.1 | 2.2 | 1.1 | 5.1
